{"source": "patent US9526766B2", "about": "“Potentiation of antibiotic treatment with a protein-lipid complex” (priority 2012, dated 2016)", "molecules": {"B1": {"name": "ALAFAC: non-covalent complex of alpha-lactalbumin and fatty acid (oleic acid); labeled HAMLET or HL in drawings and tables (protein, UniProt P00709 20-142, looked up)", "Alpha-lactalbumin": "KQFTKCELSQLLKDIDGYGGIALPELICTMFHTSGYDTQAIVENNESTEYGLFQISNKLWCKSSQVPQSRNICDISCDKFLDDDITDDIMCAKKILDIKGIDYWLAHKALCTEKLEQWLCEKL", "modifications": "complexed with oleic acid"}}, "key": {"[1]": {"test_system": "Streptococcus pneumoniae", "experiment": "Short-time kill assay on planktonic cultures", "type": "cell-based", "conditions": "for Short-time killing: ALAFAC 50 μg/ml, alone or combined"}, "[2]": {"test_system": "Staphylococcus aureus", "experiment": "MIC by broth microdilution, antibiotics with and without ALAFAC", "type": "cell-based", "method_in_brief": "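Broth microdilution per CLSI in tryptic soy broth, two-fold antibiotic dilutions in triplicate with or without ALAFAC, inoculum 10^5 CFU/mL. Incubated 24 h at 37 °C with OD600 read every 5 min; MIC is lowest concentration showing no OD600 increase.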"}, "[3]": {"test_system": "S. pneumoniae nasopharyngeal colonization", "experiment": "Murine nasopharyngeal colonization model, intranasal treatment", "type": "in vivo, Streptococcus pneumoniae", "conditions": "ALAFAC 50 μg, alone or combined", "procedure": "Methodology: Six-week-old female BALB/cByJ mice from Jackson Laboratories (Bar Harbor, Me., U.S.A.) were maintained in filter-top cages on standard laboratory chow and water ad libitum until use. Mice were colonized as described previously. In short, 20 μl of a bacterial suspension containing 5×10^6 CFUs of EF3030 pneumococci, 1×10^8 CFUs of SP670 pneumococci, or 5×10^7 NRS70 methicillin-resistant S. aureus in PBS were pipetted into the nares of non-anesthetized mice. […] Colonization burden was then assessed after euthanizing the animals by enumerating viable bacteria from harvested nasopharyngeal tissue after the nasal wash. Nasopharyngeal tissue was dissected out as described by removing the upper skull bone, and harvesting the tissue present in the nasal conchae with forceps. Bacterial load was measured by determining viable plate counts from the homogenized tissue.\nMice were colonized as described. In short, 20 μl of a bacterial suspension containing 5×10^6 CFUs of EF3030 pneumococci in PBS or 1×10^8 CFUs of SP670 pneumococci in PBS were pipetted into the nares of non-anesthetized mice. […] Colonization burden was then assessed after euthanizing the animals by enumerating viable bacteria both in a nasopharyngeal lavage obtained by injecting 100 μL PBS in the trachea of mice and collecting it as it flowed out the nares, and from harvested nasopharyngeal tissue after the nasal wash. Nasopharyngeal tissue was dissected out as described by removing the upper skull bone, and harvesting the tissue present in the nasal conchae with forceps. Bacterial load was measured by determining viable plate counts from the nasal lavage or from homogenized tissue."}, "[4]": {"test_system": "Staphylococcus aureus biofilms", "experiment": "Static biofilm model, viable counts", "type": "cell-based", "conditions": "for Biofilm death / reduction in biofilm biomass: methicillin 1,000 μg/ml monotherapy, combination with 100 μg/ml ALAFAC"}}, "note": "Entries after “also recorded” stand apart in the source; their conditions may differ.", "data": [{"molecule": "B1", "values": [{"measurement": "Short-time killing", "setting": "[1]; D39, 1 hour, gentamicin 50 μg/ml, 7.7 log10 inoculum", "result": "insignificant killing"}, {"measurement": "Short-time killing", "setting": "[1]; D39, 4 hours, erythromycin 200 μg/ml, 7.2 log10 inoculum", "result": "insignificant bactericidal activity"}, {"measurement": "Fold higher concentration of ALAFAC alone required for activity similar to the combination", "setting": "[1]; D39, versus 50 μg/ml ALAFAC + 20 μg/ml penicillin G, 4 hours", "result": "> 5", "unit": "fold"}, {"measurement": "Concentration required to eradicate each inoculum", "setting": "[1]; all pneumococcal strains, 1 hour", "result": "approximately 15 times the MIC"}, {"measurement": "Concentration to eradicate an inoculum of 10^8 pneumococci", "setting": "[1]; time-kill assay, 1 hour", "result": 300, "unit": "μg/ml"}, {"measurement": "[HL] to sensitize", "setting": "[2]; 10307570, sensitive to methicillin", "result": 6, "unit": "µM"}, {"measurement": "[HL] to sensitize", "setting": "[2]; 11090306, sensitive to methicillin", "result": 0, "unit": "µM"}, {"measurement": "Additional ALAFAC required for equivalent adjuvant activity", "setting": "[2]; Mueller Hinton broth versus TSB", "result": "approximately 20%"}, {"measurement": "[HL] to sensitize", "setting": "[2]; NRS1, sensitive to gentamicin", "result": 48, "unit": "µM"}, {"measurement": "[HL] to sensitize", "setting": "[2]; NRS1, sensitive to methicillin", "result": 48, "unit": "µM"}, {"measurement": "[HL] to sensitize", "setting": "[2]; NRS1, sensitive to vancomycin", "result": 18, "unit": "µM"}, {"measurement": "[HL] to sensitize", "setting": "[2]; NRS70, sensitive to methicillin", "result": 3, "unit": "µM"}, {"measurement": "[HL] to sensitize", "setting": "[2]; NRS71, sensitive to methicillin", "result": 54, "unit": "µM"}, {"measurement": "[HL] to sensitize", "setting": "[2]; NRS100, sensitive to methicillin", "result": 18, "unit": "µM"}, {"measurement": "[HL] to sensitize", "setting": "[2]; NRS123, sensitive to erythromycin", "result": 0, "unit": "µM"}, {"measurement": "[HL] to sensitize", "setting": "[2]; NRS123, sensitive to methicillin", "result": 12, "unit": "µM"}, {"measurement": "[HL] to sensitize", "setting": "[2]; NRS384, sensitive to erythromycin", "result": 6, "unit": "µM"}, {"measurement": "[HL] to sensitize", "setting": "[2]; NRS384, sensitive to gentamicin", "result": 0, "unit": "µM"}, {"measurement": "[HL] to sensitize", "setting": "[2]; NRS384, sensitive to methicillin", "result": 6, "unit": "µM"}, {"measurement": "[HL] to sensitize", "setting": "[2]; NRS384, sensitive to vancomycin", "result": 0, "unit": "µM"}, {"measurement": "Concentration of ALAFAC alone without activity", "setting": "[2]; any of the S. aureus strains tested", "result": "exceeding 5,000 μg/ml"}, {"measurement": "ALAFAC concentration required to convert all antibiotic-resistant strains to sensitivity", "setting": "[2]; methicillin, gentamicin, erythromycin and vancomycin", "result": "at most 54 μM"}, {"measurement": "Bacterial burden, nasopharyngeal tissue and nasal lavage", "setting": "[3]; mice colonized with EF3030 for 48 hours, single intranasal dose, gentamicin, 6 hours", "result": "no decrease in bacterial burden"}, {"measurement": "Colonization level / bacterial burden", "setting": "[3]; mice colonized with SP670 for 48 hours, penicillin up to 100 μg (5,000 μg/ml) intranasally, 12 hours", "result": "no effect; also recorded: no decrease in the pneumococcal burden"}, {"measurement": "Biofilm bactericidal activity, reduction in viable bacteria", "setting": "[4]; MRSA NRS 70 and MSSA 11090306 biofilms, 24 hours, ALAFAC 200 μg/mL (12 μM), methicillin 250 μg/mL (660 μM), alone or combined", "result": "failed to induce bactericidal activity"}, {"measurement": "Biofilm death / reduction in biofilm biomass", "setting": "[4]; MRSA NRS70 biofilm", "result": "no death"}, {"measurement": "Biofilm death / reduction in biofilm biomass", "setting": "[4]; MSSA 11090306 biofilm", "result": "no death"}, {"measurement": "Biofilm viability", "setting": "[4]; NRS 1 and NRS 384 biofilms, ALAFAC 500 μg/ml (30 μM), gentamicin 50 μg/ml (105 μM), alone or combined", "result": "Neither ALAFAC (500 μg/ml; 30 μM) nor gentamicin (50 μg/ml; 105 μM) had any effect"}]}]}
